Test results: the nanobody polyreactivity screen of Harvey et al. (2022)

Experiment: yeast display, Sf9 membrane polyspecificity reagent, FACS + sequencing; frameworks hold sequencing errors
Summary of the method: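 Galactose-induced (36–48 hours) yeast carrying a synthetic nanobody display library were exposed to 10% biotinylated, detergent-solubilized Sf9 membrane reagent at 4 °C for 1 hour. FACS followed streptavidin microbead enrichment, using low and high (top ~1%) gates for expression (anti-HA) and reagent binding (streptavidin). Colony PCR, MiSeq 2 × 250 sequencing and CDR-length filtering followed. Labels for polyreactivity reflect the gate of origin.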

QVQLVESGGGLVQAGGSLRLSCAASGFIFRYYAMGWYRPAPGKERELVAAISGSGGSTYYADSVKGRFTISRDNAKNTVYLQMNSLKPEDTAVYYCNKVVLYGAHYYYWGQGTQVTVSS
polyreactivity (PSR sort gate): high polyreactivity

QVQLVESGGGLVQAGGSLRLSCAASVSIFRWNTMGWYRQAPGKERELVASITFTGGRTYYADSVKGRFTISRDNAKNTVYLQMNSLKPEDTAVYYCNGLVVTYPKWKYDYWGQGTQVTVSS
polyreactivity (PSR sort gate): high polyreactivity

QVQLVESGGGLVQAGGSLRLSCAASGSIFTYNTMGWYRPAPGKERELVAAISSGGRTYYADSVKGRFTISRDNAKNTVYLQMTSLKPEDTAVYYCAARYYFWGQGTQVTVSS
polyreactivity (PSR sort gate): high polyreactivity

QVQLVESGGGLVQAGGSLRLSCAASGFTFRYYTMGWYRQAPGKETELVAAINTSGAGTYYADSVKGRFTISRDNAKNTVYLQMNSLKPEDTAVYYCAATWYGLDYNYWGQGTQVTVSS
polyreactivity (PSR sort gate): high polyreactivity

QVQLVESGGGLVQAGGSLRLSCAASGLTFPLYAMGWYRPAPGKEREFVAAITVSGVSTSYADSVKGRFTISRDNAKNTVYLQMNSLKPEDTAVYYCAADYYIWTYWDVYYWGQGTQVTVSS
polyreactivity (PSR sort gate): high polyreactivity

QVQLVESGGGLVQAGGSLRLSCAASGSIVSGYAMGCYRQARGKERELVDAITRSGGRTYYADSVKGRFTISRDNAKNTVYLQMNSLKPEDTAVYYCAARGGPGDDYWGQGTQETVSS
polyreactivity (PSR sort gate): high polyreactivity

QVQLVESGGGLVQAGGSLRLSGAASGSIFDIYAMGWYRPAPGKERELVADITISGGSTYYADSVKVRFTISRDNAKNTVYLQMNSLIPEDTAVYYCAADVTVVLGYKYDYWGQGTQVTVSS
polyreactivity (PSR sort gate): low polyreactivity

QVQLVESGGGLVQAGGSLRLSCAASGRIFNINAMGWYRQAPGKERELVAAITWRSGSTYYADSVKGRFTISRDNAKNTVYLQMKSLKPEDTAVYYCAADFSQTRRPIRFYYWGQGTQVTVSS
polyreactivity (PSR sort gate): high polyreactivity

QVQLVESGGGLVQAGGSLRLSCAASGRTSGINAMGWYRQAPGKERELVAAISSGGRTYYADSVKGRFTISRDNAKNTVYLQMNSLKPEDTAVYYCAAVIHWSLYRRMEYWGQGTQVTVSS
polyreactivity (PSR sort gate): high polyreactivity

QVQLVESGGGLVQAGGSLRLSCAASGRTFLRNAMGWYRQAPGKERELVAAITSSGGRTYYADSVKGRFTISRDNAKNTVYLQMNSLKPEDTAVYYCATDTGWPGRDYWGQGTQVTVSS
polyreactivity (PSR sort gate): high polyreactivity

QVQLVESGGGLVQAGGSLRLSCAASGSTFAYYAMGWYRQAPGKERELVAAISRTGGSTYYADSVKGRFTISRDNAKNTVYLQMNSLKPEDNAVYYCNARGPVGTFDYDYWGQGTQVTVSS
polyreactivity (PSR sort gate): low polyreactivity

QVQLVESGGGLVQAGGSLRLSCAASGFIFDHNARGWYRQAPGKERELVAAITWRGDSTYYADSVKGRFTISRDNAKNTVYLQMNSLKPEDTAVYYCNADAILVYYGKLDYWGQGTQVTVSS
polyreactivity (PSR sort gate): low polyreactivity

QVQLVESGGGLVQAGGSLRLSCAASGSTFADYAMGWYRQAPGKERELVAAITSSGGSTYYADSVKGRFTISRDNAKYTVYLQMKSLKAAETAGYYCNARVPRLLFVRFYGMDYWGQGNQVTVSS
polyreactivity (PSR sort gate): low polyreactivity

QVQLVESGGGLVQAGGSLRLSCAASGFIFVRNAMGWYRQAPGKERELVAAISSRGGRTYYADSVKGRFTISRDNAKNTVYLQMNSLKPEDTAVYYCNADRDTQGDGYDYWGQGTQVTVSS
polyreactivity (PSR sort gate): high polyreactivity

QVQLVESGGGLVQAGGSLRLSCAASGSIIHVNAMGCYRQAPGKERELVAGISDGGSTYYADSVKGRFTISRDNAKYTVYLQMNSLKPEDTAVYYCAAESEQWYSYVLSYDWEYDYWGQGTQVTVSS
polyreactivity (PSR sort gate): low polyreactivity

QVQLVESGGGLVQAGGSLRLSCAASGGTIAGYAMGWYRHAPGKERELVASISDGGSTNYADSVKGRFTISRDNAKNTVYLQMNSLKPEDTAVYYCADLAYVPSYTYDYWGQGTQVTVSS
polyreactivity (PSR sort gate): low polyreactivity

QVQLLGSGGGLVQACGSLRLSCSASGSISHYIFMGWYRQAPAKEREFVAGIGYGGTTNYADSVKGRFTISRDNAKNTVYLQMNSLKPEDTAMYYCAAREATAFYLYYCGQGTQVTVSS
polyreactivity (PSR sort gate): low polyreactivity

QVQLVESGGGLVQAGGSLRLSCAASGRIFAWNDMGWYRQAPGKERELVAAITSGGSTYYADSVKGRFTISRDNAKNTVYLQMNSLKPEDTAVYYCAAEVYVPDYFQHKFDVEYEYWGQGTQVTVSS
polyreactivity (PSR sort gate): low polyreactivity

QVQLGESGGGLVQAGGSLRLSCAGTGIIFARYVMGWEREAPGQDRELVAAIRRSGHSTYADSVKGRFTISRYNATNTLYLHMNSLKPEETAVYYCNAKGWISGRYSPYYRFDYWGQGTQVTVSS
polyreactivity (PSR sort gate): high polyreactivity

QVQLVESGGGLVQAGGSLRLSCAASGLTLSYNAMGWYRPAPGKERELVAAIRSGGSTNYADAVKGRFTISRDNANNTVYLQMNSLKPEDTAVYYCAARCRYLPYRDGRYQSGYEYWGQGTQVTVSS
polyreactivity (PSR sort gate): high polyreactivity

QVQLVESGGGLVQAGGSLLLICADSGITFYGNAMGWYRQAPGKERELVAAISSSGGTTYYADSVKGRFTISRDNAKNTVYLQMNSLKPEDTAVYYCNAVDGIHPYASPSFQQYDYWGQGTQVTVSS
polyreactivity (PSR sort gate): low polyreactivity

QVQLVESGGGLVQAGGSLRLSCAASGIFDPNAMGWYRQAPGKERELVAAITSGGSTNYADSVKGRFTISRDNAKNTVYLQMNSLKPVDTAVYYCNADSYDEIKYGYWGQGTQVTVSS
polyreactivity (PSR sort gate): low polyreactivity

QVQLVESGGGLVQAGGSLRLSCAASGFTFYTYTMGWYRQAPGKERELVAVISRSGGSTYYADSVKGRFTISRDNAKNTVYLQMNSLKPEDTAVYYCNAGYWRFIDSYDYWGQGTQVTVSS
polyreactivity (PSR sort gate): high polyreactivity

QVQVVESGGGLVQAGGSLRLTCAASGRTFYKNAMGWYRQAAGKERELFAAITTRGGTTFYADSVKGRFTISRDNAKNTDYLQLNSMIPEDTAVDYCAKDSYTRPRGYDFWGQGTHVTVSS
polyreactivity (PSR sort gate): high polyreactivity

QVQLVESGGGLVQAGGSLRLSCAASGYIFPTYGMGWYRQAPGKERELVADITNNAGSTYYADSVKGRFTISRDKAKNTVYLQMKSLKPEDTEVYYCAADAYWPYWPYSYDYWGHGTQVTVSS
polyreactivity (PSR sort gate): low polyreactivity

QVQLVESGGGLVQAGGSLRLSCAASGFILDRYAMGWYRQAPGKERELVASITSGGSTNYADSVKGRFTISRDNAKNTVYLQMNSLIPEDTAVYYCAAYPWRYWNHEYNYWGQGTQVTVSS
polyreactivity (PSR sort gate): high polyreactivity

QVQLVESGGGLVQAGGSLRLSCAASGSIFDYYAMGWYRQAPGKERELVATISGGGGTTYYADSVKGRFTISRDNAKNTVYLQMNSLKPEDTAVYYCAAVSLGYNYWGQGTQVTVSS
polyreactivity (PSR sort gate): low polyreactivity

QVQLVESGGGLVQAGGSLRLSCAASGSIFLGNAMGWYSPAPGKERELVAAISYSGGSTYYADSVKGRFTISRDNAKNTVYLQMNSLKPEDTDVYYCAADRSSQFDLDYWGQGTRVTVSS
polyreactivity (PSR sort gate): low polyreactivity

QVQLVESGGGLVQAGGSLRLISAASGGISSLNAMGWYSQAPGKERELVAAIDWIGGSTYYADSVKGRFTISRDTAKNTVYLQKNSLKPEDTAVYYCGKRGVYGDRYYYWGQGTQVTVSS
polyreactivity (PSR sort gate): high polyreactivity

QVQQQESGGGQVQAGGSLRLSCAASGTIFLYAFLGRYRQAPGKERELVAAIDVGTTTNYADSVKGRFTIRRDNANNTVYLQMNSLKPEDTAVYYCAATLGYLDDLGYWGQGTQVTVSS
polyreactivity (PSR sort gate): low polyreactivity

QVQLVESGGGLVQAGGSLRLSCAASGRIFKNYAMGWYRQAPGKERELVAAISWSGGRTYYADSVKGRFTISRDYAKNTVYLQMNSLKPEDTAVYYCASAARRGPTSIEPFGYGSWGQGTQVTVSS
polyreactivity (PSR sort gate): high polyreactivity

QVQLVESGGGLVQAGGSLRLSCAASGIIFGYYAMGWYRQAPGKERELVAAISRRGGSTYYADSVKGRFTISRDNAKNTVYLQMNSLKPEDTAVYYCNKRRAAGGFPYDYWGQGTQVTVSS
polyreactivity (PSR sort gate): high polyreactivity

QVQLVESGGGLVQAGGSLRLSCAASGFTFKWYAMGWYRQAPGKERELVATITIGGRTNYADSVKGRFTISRDNAKNTVYLQMNSLKPEDTAVYYCAAESGKIVDFVWVLAYPRLDYWGQGTQVTVSS
polyreactivity (PSR sort gate): low polyreactivity

QVQLQESGGGLVQEGGSLRLSCAASGNISPPADMGWYRQAPGKERELVASIGTGGTTNYADSVKGRFTISRDNAKNTVYLQMNSLKPDDTAVYYCAAVRYEYNPYDYWGQGTQVTVRS
polyreactivity (PSR sort gate): low polyreactivity

QVQLVESGGGLVQAGGSLRLSCAASGIIFDRYAKGWYRQAPGKERELVAAITYGGGSTYYADSVKGRFTISRDNAKNTVYLQMNSLKPEDTSVYYCAAVPRSGMYYWGQGTQVTVSS
polyreactivity (PSR sort gate): high polyreactivity

QVQLVESGGGLVQAGGSLRLSCAASGIIFYANAMGWYRQAPGKERELVAAISWSGSSTYYADSVKGRFTISRDNAKNTVYLQMNSLKPEDTAVYYCNKATSSVRYLKYYYWGQGTQVTVSS
polyreactivity (PSR sort gate): high polyreactivity

QVQLVESGGGLVQAGGSLRLSCAASGSIFGYNAMGWSRQAPGKERELVAAITGSGGSTYYADSVKGRFTISRDNAKNTVYLLMNILKPEDTAVYYCADDLVGGPLGYWDYDYWGQGTQVTVSS
polyreactivity (PSR sort gate): low polyreactivity

QVQLVESGGGLVQAGGSLRLSCADSGFTFSWYAMGWYRQAPGKERELVAAISLRGGSTYYADSVKGRFTISRENAKNTVYFQMNSLKPEDTAVYYCAADSFRWRYKNFYYWGQGTQVTLSS
polyreactivity (PSR sort gate): high polyreactivity

QVQLVESGGGLVQAGGSLRLSCAASGNTFRYYAMGWYRQAPGKERELVAAISESGGRTYYADSVKGRFTISRDNAKNTVYLQMNSLNPEDTAVYYCAASRWARTWWYGYNYWGQGTQVTVSS
polyreactivity (PSR sort gate): high polyreactivity

QVQLVESGGGLVQAGGSLRLSCAASGSTFRYNPMGWYRQAPGNERELVAAISSGGYTNYADSVKGRFTISRDNAKNTVYLQMNSLKPEDTAVYYCAARYYPWKVNRFSYWYDYWGQGTLVTVSS
polyreactivity (PSR sort gate): high polyreactivity

QVQLVESGGGLVQAGGSLRLSCAASGSIFGLYAMGWYRQAPGKERELVATISKSGVSTYYADSVKGRFTISRDNAKNTVYLQMNSLKPEDTAVYYCNADISRDKDFDYWGQGTQVTVSW
polyreactivity (PSR sort gate): low polyreactivity

QVQLVESGGGLVQAGGSLRLSSAASGSTFRYYTMGWYRPAPGKERELVADITIGGSTYYADSVKGRFTISRDNAKNTVYLQMNSLKPEDSAVYYCAARSTGGRIFATGVAYDYWGQGTQVTVSS
polyreactivity (PSR sort gate): low polyreactivity

QVQLVESGGGLVQAGGSLRLSCAASGSIFRRNAMGWYRQAPGKERELVAGISGGGSTYYADSVKGRFTISRDNAKNTVYLQMNSLKPEDTAVYYCSTDKHYRWAGFDYWGQGTQVTVSS
polyreactivity (PSR sort gate): low polyreactivity
